Biological target: the molecule itself
Experiment: SEC-MALS

B1: His6-tagged (Δ1-39)hTHEM4 (enzyme, human, UniProt Q5T1C6 40-240, looked up)
chain: EVILKDCSVPNPSWNKDLRLLFDQFMKKCEDGSWKRLPSYKRTPTEWIQDFKTHFLDPKLMKEEQMSQAQLFTRSFDDGLGFEYVMFYNDIEKRMVCLFQGGPYLEGPPGFIHGGAIATMIDATVGMCAMMAGGIVMTANLNINYKRPIPLCSVVMINSQLDKVEGRKFFVSCNVQSVDEKTLYSEATSLFIKLNPAKSLT
  stoichiometry N: 2
